Experimental data published in US20230080224A1 (AGENCY FOR SCIENCE TECHNOLOGY AND RESEARCH, published 2023).

T1: human ALPPL2 (recombinant protein) (human, UniProt P10696 20-503)
T1 chain: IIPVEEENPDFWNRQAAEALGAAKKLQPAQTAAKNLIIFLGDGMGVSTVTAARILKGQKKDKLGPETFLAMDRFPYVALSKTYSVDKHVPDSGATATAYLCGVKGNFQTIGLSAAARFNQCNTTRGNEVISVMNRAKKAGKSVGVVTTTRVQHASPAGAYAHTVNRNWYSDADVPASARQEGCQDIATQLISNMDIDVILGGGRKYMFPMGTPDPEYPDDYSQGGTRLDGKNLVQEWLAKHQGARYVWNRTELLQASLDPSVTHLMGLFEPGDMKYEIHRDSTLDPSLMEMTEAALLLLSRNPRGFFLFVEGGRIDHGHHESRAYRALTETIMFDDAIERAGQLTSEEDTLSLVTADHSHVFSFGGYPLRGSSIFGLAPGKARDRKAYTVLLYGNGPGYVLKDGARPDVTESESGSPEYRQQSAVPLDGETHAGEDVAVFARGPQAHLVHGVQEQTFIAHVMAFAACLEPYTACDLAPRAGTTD

T2: ALPI (screening and SPR/ELISA protein) (UniProt P09923 20-503, limits assumed)
T2 sequence (looked up): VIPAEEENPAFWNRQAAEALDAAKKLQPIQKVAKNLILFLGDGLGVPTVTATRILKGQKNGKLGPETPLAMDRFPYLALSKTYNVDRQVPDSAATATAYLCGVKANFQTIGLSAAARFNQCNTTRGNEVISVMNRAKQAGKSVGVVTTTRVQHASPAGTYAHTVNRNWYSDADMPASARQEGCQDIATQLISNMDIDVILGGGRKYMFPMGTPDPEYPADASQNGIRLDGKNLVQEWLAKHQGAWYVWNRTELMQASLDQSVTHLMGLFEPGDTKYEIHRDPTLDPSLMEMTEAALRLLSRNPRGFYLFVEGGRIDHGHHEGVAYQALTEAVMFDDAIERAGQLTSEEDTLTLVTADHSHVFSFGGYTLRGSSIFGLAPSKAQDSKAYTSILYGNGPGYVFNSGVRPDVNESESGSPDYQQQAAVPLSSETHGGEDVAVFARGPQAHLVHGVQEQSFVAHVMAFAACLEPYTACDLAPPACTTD

T3: human ALPI expressed on cells (human, UniProt P09923 20-503)
T3 construct: whole, on cells
T3 sequence (looked up): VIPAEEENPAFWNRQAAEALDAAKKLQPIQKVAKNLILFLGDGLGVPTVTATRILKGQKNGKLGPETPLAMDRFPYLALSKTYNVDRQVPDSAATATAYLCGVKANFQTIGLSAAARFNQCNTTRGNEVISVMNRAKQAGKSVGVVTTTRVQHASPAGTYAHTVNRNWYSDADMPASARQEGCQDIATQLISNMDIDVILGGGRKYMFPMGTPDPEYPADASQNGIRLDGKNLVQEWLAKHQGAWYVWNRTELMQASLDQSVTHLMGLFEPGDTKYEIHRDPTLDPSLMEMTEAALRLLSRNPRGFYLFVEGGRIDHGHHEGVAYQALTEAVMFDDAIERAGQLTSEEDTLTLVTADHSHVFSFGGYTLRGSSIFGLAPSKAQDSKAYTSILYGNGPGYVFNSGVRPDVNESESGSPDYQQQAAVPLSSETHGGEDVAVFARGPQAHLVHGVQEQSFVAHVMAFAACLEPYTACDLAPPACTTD

T4: human ALPL expressed on cells (human, UniProt P05186 18-501)
T4 construct: whole, on cells
T4 sequence (looked up): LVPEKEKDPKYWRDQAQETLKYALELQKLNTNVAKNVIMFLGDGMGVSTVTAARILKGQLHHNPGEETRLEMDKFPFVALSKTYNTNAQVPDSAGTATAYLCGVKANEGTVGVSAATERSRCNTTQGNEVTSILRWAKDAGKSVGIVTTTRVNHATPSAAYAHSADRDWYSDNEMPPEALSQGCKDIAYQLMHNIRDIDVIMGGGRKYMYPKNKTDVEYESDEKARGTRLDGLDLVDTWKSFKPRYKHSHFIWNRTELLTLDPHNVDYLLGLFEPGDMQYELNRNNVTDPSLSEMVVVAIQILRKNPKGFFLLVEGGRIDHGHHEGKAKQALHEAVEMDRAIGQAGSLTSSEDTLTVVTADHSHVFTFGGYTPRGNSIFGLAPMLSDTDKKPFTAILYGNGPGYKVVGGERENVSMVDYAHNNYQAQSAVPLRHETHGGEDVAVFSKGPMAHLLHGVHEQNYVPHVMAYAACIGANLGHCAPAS


Assays:
[1] = target: T5, human ALPP expressed on cells (human, UniProt P05187 23-506); experiment: FACS (FIG. 12A)
T5 construct: whole, on cells

[2] = target: T6, human ALPPL2 expressed on cells (human, UniProt P10696 20-503); experiment: FACS (FIG. 12A)
T6 construct: whole, on cells; also called placental-like alkaline phosphatase

[3] = target: T1, human ALPPL2 (recombinant protein); experiment: BLI; single concentration
[4] = target: T7, human ALPPL2 (recombinant protein) (human, UniProt P10696 20-503, limits assumed); experiment: screen of rabbit B-cell clones by ELISA and FACS
T7 construct: biotinylated where captured on streptavidin
Excerpt: (§1) Specific clones were screened and identified by ELISA and high throughput flow cytometry (FIG. 3). Rabbit kidney cells were transfected with either truncated (for ELISA screen) or full-length (for FACS screen) ALPI and ALPPL2.

[5] = target: T2, ALPI (screening and SPR/ELISA protein); experiment: screen of rabbit B-cell clones by ELISA and FACS
Excerpt: as §1

[6] = target: human ALPP (recombinant protein) (human, UniProt P05187 23-506, limits assumed); experiment: biolayer interferometry, biotinylated ligand on SA biosensors (FIG. 12G)
Method: Chimerized C53 is also cross-reactive towards rhesus macaque ortholog. Binding affinity of humanized C53 as compared to humanized C36 to ALPPL and ALPP was performed using Biolayer Interferometry. In this technique, biotinylated ligands (i.e. ALPPL2 or ALPP) were immobilized on SA biosensors. Ligands-loaded sensors were then incubated with different concentrations of analyte (recombinantly expressed humanized antibody clones) in the buffer.

[7] = target: T1, human ALPPL2 (recombinant protein); experiment: BLI
[8] = target: T6, human ALPPL2 expressed on cells; experiment: FACS (FIG. 13)
[9] = target: T7, human ALPPL2 (recombinant protein); experiment: SPR, Biacore T200, ligand captured by streptavidin on CM5 chip, antibody as analyte
Method: Select clones (C4, C15, C131, C12, C18, C36 and C53) were humanized by grafting the CDRs to a human IgG1 framework. […] Surface plasmon resonance was studied using Biacore T200. Ligands (e.g. ALPPL2 or ALPP) were immobilized on biosensors CM5 chips captured with the streptavidin. Ligands-loaded sensors were then incubated with different concentrations of analyte (recombinant expressed humanized antibody clones) to measure affinity.

[10] = target: T3, human ALPI expressed on cells; experiment: FACS on transiently transfected 293T cells (FIG. 13A)
[11] = target: T4, human ALPL expressed on cells; experiment: as above
[12] = target: T5, human ALPP expressed on cells; experiment: as above

T5 sequence (P05187 23-506): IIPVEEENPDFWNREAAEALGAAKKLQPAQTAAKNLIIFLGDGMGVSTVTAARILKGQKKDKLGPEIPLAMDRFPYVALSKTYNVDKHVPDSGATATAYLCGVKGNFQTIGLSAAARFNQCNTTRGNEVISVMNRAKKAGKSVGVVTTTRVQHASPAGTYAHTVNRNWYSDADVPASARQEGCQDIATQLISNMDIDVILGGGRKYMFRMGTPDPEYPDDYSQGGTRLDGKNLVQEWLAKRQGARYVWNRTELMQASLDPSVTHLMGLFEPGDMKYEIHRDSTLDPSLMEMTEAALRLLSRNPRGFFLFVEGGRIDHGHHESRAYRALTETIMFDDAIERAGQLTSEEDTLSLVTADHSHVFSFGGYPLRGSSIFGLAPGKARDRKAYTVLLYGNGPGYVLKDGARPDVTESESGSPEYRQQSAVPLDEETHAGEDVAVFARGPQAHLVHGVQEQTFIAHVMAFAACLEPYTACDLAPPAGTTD
Sequence of human ALPP (recombinant protein) (P05187 23-506 limits assumed): as the sequence (P05187 23-506) above

Binder | binding result [1] | binding result [2] | Kd [3] [nM] | binding result [4] | binding result [5] | binding result [6] | Kd [7] [nM] | binding result [8] | binding result [9] | binding result [10] | binding result [11] | binding result [12]
AB1C4 (antibody, V domains shown, Rabbit antibody cloned from a single B cell; also called rabbit C4) VH: QSLEESGGDLVKPGPSLTLTCKASGFTISNNYWICWVRQAPGKGLEWIGCIATGDGSTYYASWAKGRFTISKTSSTTVTLQMTSLTAADTATYFCARGAAGSSWTTYFDFWGPGTPVTVSS VL: DIVMTQTPASVEAAVGGTVTIKCQAGQNIDNYLSWYQQKPGQPPKLLIYRASTLASGVPSRFKGSGSGTEFTLTISDLECADAATYYCQNNNGGSTFTGFPFGGGTEVVVK | binds | binds | 0.001 | binds | no binding |  |  |  |  |  |  | 
humanized C53 (antibody, human IgG1, V domains shown, CDRs grafted to a human IgG1 framework; recombinant; also called hC53) VH: EVQLVESGGGLVQPGGSLRLSCAASGFSFSSGYDMCWVRQAPGKGLEWIACIHSSSGTTYYASWAKGRFTISRDNSKNTLYLQMNSLRAEDTAVYYCARDFSYTDDYISYVYATDLWGQGTLVTVSS VL: DIQMTQSPSSLSASVGDRVTITCQASQSIGSSLAWYQQKPGKVPKLLIYAASYLASGVPSRFSGSGSGTDFTLTISSLQPEDVATYYCQSTYYSSSTDIRAFGQGTKVEIK |  |  |  |  |  | no binding | 1 | binds | binds | no binding | no binding | no binding
